Measurements taken from patent US20190352411A1 (ALLIGATOR BIOSCIENCE, published 2019).
Like-named read-outs stand apart in the source and are kept apart here.

Legend:
[1] = target: T1, cynomolgus CD137 (ELISA, Example 15) (cynomolgus, UniProt A9YYE7 24-186); assay: ELISA, cynomolgus CD137
T1 construct: Reagent not described; also called cyno CD137

[2] = target: T2, recombinant human CD137-Fc (R&D #838-4B) (human, UniProt Q07011 24-186); assay: ELISA, coated human CD137-Fc
T2 construct: Bought protein coated on ELISA plates; also called CD137 (R&D #838-4B); not shown: Fc part of the commercial fusion protein; not described

[3] = target: T2, recombinant human CD137-Fc (R&D #838-4B); assay: ELISA, coated CD137 (R&D #838-4B)
[4] = target: T3, cynomolgus CD137 on transfected CHO cells (CHO-cyCD137) (cynomolgus (Macaca fascicularis); human); assay: flow cytometry; EC50 on CHO-cyCD137 against EC50 on CHO-huCD137
T3 construct: extracellular domain;domain: transmembrane and intracellular part; also called cyno CD137
Description: (§1) Binding and EC50 was determined using flow cytometric of CHO cells transfected with human CD137, cynomolgus CD137 or empty vector. The extracellular part of human or cynomolgus CD137 was fused to the transmembrane and intracellular part of human CD40 and cloned into pcDNA3.1. The vector was subsequently stably transfected into CHO cells. […] CD137-transfected and empty vector-transfected cells were incubated with CD137 antibodies for at least 1 h at 4° C. to saturate the binding. In order to minimize antibody internalization, 0.05% sodium azide was used in the incubation buffer and all work was performed on ice. The CD137 antibodies were detected using PE-conjugated anti-hIgG antibody (109-115-098, Jackson Immunoresearch laboratories), incubated for 30 min at 4° C. Directly after staining the cells were fixed with a paraformaldehyde solution (10× concentrate BD CellFIX, BD biosciences #340181). Cells were analyzed by flow cytometry using FACSVerse (BD Biosciences). The median fluorescence intensity (MFI) for each sample was determined and the dose response data was analysed using Graph Pad Prism.
(§2) MFI data was normalized for each antibody, where 0% is defined as the lowest value and 100% is the highest value in the dose titration for each antibody.

[5] = target: T3, cynomolgus CD137 on transfected CHO …; assay: flow cytometry on CHO-cyCD137 cells; 95% confidence interval of the EC50
[6] = target: T4, human CD137 on transfected CHO cells (CHO-huCD137) (human); assay: flow cytometry on CHO-huCD137 cells; 95% confidence interval of the EC50
T4 construct: domain: transmembrane and intracellular part
Description: as §1, §2

[7] = target: T3, cynomolgus CD137 on transfected CHO …; assay: flow cytometry on CHO-cyCD137 cells; 95% confidence interval of the EC50; remark: listed apart in the source
Description: as §1, §2

[8] = target: T5, Human CD137 (R&D systems) (human, UniProt Q07011 24-186, limits assumed); assay: SPR (Biacore), human CD137 immobilised, bivalent antibody as analyte, 1:1 Langmuir model
T5 construct: also called CD137 coated on the chip surface
Description: Human CD137 (R&D systems) was immobilized to the Biacore™ sensor chip, CMS, using conventional amine coupling. […] The association was followed for 5 minutes and the dissociation for 15 minutes. Regeneration was performed twice using 10 mM Glycine pH 1.7 for 30 seconds. The kinetic parameters and the affinity constants were calculated using 1:1 Langmuir model.
The affinities of the antibodies were in the nanomolar to sub-nanomolar range (Table 3) measured using bivalent antibodies flowed over CD137 coated on the chip surface.

[9] = target: human CD137 (Acro Biosystems #41B-H5227) (human, UniProt Q07011 24-186); assay: Octet (BLI), antibody amine-coupled to ARG2 biosensor, soluble CD137 as analyte, 1:1 model
Description: (§3) Materials and method CD137 affinity was determined using the Octet Red 96 platform (ForteBio). […] 7 2-fold serial dilutions of CD137 (Acro Biosystems #41B-H5227 and #41B-C52H4) from 100 nM was prepared in 1× kinetic buffer (ForteBio #18-1092). Association was measured for 180 s followed by dissociation for 180 s in 1× kinetic buffer. 10 mM Glycine pH 2.2 was used for regeneration.
(§4) Data generated was referenced by reference well subtraction (1188), the baseline was aligned with the y-axis, inter-step correlation by alignment against association was performed and the data was smoothed by a Savitzky-Golay filtering in the data analysis software (v.9.0.0.14). The processed data was fitted using a 1:1 Langmuir binding model with X² as a measurement of fitting accuracy.

[10] = target: cynomolgus CD137 (Acro Biosystems #41B-C52H4) (cynomolgus, UniProt A9YYE7 24-186); assay: as above
Description: as §3, §4

[11] = target: T4, human CD137 on transfected CHO cells …; assay: flow cytometry on CHO cells transfected with human CD137, PE anti-hIgG detection, MFI normalised 0-100% for each antibody
Description: as §1, §2

[12] = target: T3, cynomolgus CD137 on transfected CHO …; assay: flow cytometry on CHO cells transfected with cynomolgus CD137, PE anti-hIgG detection, MFI normalised 0-100% for each antibody
Description: as §1, §2

human CD137 (Acro Biosystems #41B-H5227), sequence (Q07011 24-186 limits assumed): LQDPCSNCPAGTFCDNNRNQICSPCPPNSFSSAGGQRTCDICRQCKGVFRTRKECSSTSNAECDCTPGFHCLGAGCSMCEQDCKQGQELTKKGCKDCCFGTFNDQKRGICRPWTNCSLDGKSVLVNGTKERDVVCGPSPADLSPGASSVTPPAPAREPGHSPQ
T5 sequence (Q07011 24-186 limits assumed): as above
cynomolgus CD137 (Acro Biosystems #41B-C52H4), sequence (A9YYE7 entry or part of it): as the sequence (Q07011 24-186 limits assumed) above, with P4L, N19S, R50K, T66I, P67S, F69Y, G75E, V149A counted along it
T3 sequence (P25942 other isoform, or with tags, fused parts or gaps): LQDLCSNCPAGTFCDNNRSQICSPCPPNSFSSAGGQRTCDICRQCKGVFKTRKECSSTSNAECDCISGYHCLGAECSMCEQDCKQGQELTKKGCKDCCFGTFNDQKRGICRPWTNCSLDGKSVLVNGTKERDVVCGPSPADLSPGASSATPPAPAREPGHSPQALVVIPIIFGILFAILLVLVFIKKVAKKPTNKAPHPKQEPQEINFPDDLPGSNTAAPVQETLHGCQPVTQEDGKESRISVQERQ
T2 sequence (Q07011 24-186 limits assumed): as the sequence (Q07011 24-186 limits assumed) above
T4 sequence (P25942 other isoform, or with tags, fused parts or gaps limits assumed): as the sequence (P25942 other isoform, or with tags, fused parts or gaps) above, with L4P, S19N, K50R, I66T, S67P, Y69F, E75G, A149V counted along it
T1 sequence (A9YYE7 entry or part of it): as the sequence (Q07011 24-186 limits assumed) above, with P4L, N19S, R50K, T66I, P67S, F69Y, G75E, V149A counted along it

B1: 1630/1631 (antibody, human IgG4 S228P, kappa, V domains shown)
VH: EVQLLESGGGLVQPGGSLRLSCAASGFTFGYSYMSWVRQAPGKGLEWVSSIGSGSSYTYYADSVKGRFTISRDNSKNTLYLQMNSLRAEDTAVYYCARVYSSPGIDYWGQGTLVTVSS
VL: DIQMTQSPSSLSASVGDRVTITCRASQSISSYLNWYQQKPGKAPKLLIYAASSLQSGVPSRFSGSGSGTDFTLTISSLQPEDFATYYCQQYYTWVPFTFGQGTKLEIKR
notes: the format in each assay is not restated
B1 showed an EC50 [1] of 850 pM, an EC50 [2] of 410 pM and an EC50 [3] of 400 pM. For the same binder, the “Ratio, cyno:human” value [4] was 0.63, the EC50 [5] was 0.12 to 0.16 µg/mL and the EC50 [6] was 0.17 to 0.26 µg/mL. For the same binder, the EC50 [7] was 550 to 870 pM, the Kd [8] was 641 pM and the koff [8] was 0.00118 s⁻¹. For the same binder, the kon [8] was 1.85e+06 M⁻¹ s⁻¹, the Kd [9] was 14000 pM and the koff [9] was 0.0023 s⁻¹. For the same binder, the kon [9] was 160000 M⁻¹ s⁻¹, the Kd [10] was 18000 pM and the koff [10] was 0.0025 s⁻¹. The kon [10] was 140000 M⁻¹ s⁻¹, the “EC50 (read off the curve)” value [11] was ~0.2 µg/mL and the “EC50 (read off the curve)” value [12] was ~0.1 µg/mL.
